# From the nanobody polyreactivity screen of Harvey et al. (2022)
# Experiment: yeast display, Sf9 membrane polyspecificity reagent, FACS + sequencing; frameworks hold sequencing errors
# Outline: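 Genes from sorted yeast were amplified by colony PCR, read by MiSeq 2 × 250 sequencing and filtered on CDR length. These cells carried a synthetic nanobody library in Saccharomyces cerevisiae BJ5465 and were sorted by FACS into low and high (top ~1%) gates on anti-HA and streptavidin fluorescence. Polyreactivity is labelled according to the gate of origin.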
row,Sequence,polyreactivity (PSR sort gate)
1,QVQLVESGGGLVQAGGSLRLSCAASGRIFGYYAMGWYRQAPGKERELVAVISWSGGSTYYADSVKGRFTISRDNAMNTVYLQMNSLKPEDSAVYYCAAERLYSIYDYWGQGTQVTVSS,high polyreactivity
2,QVQLVESGGGLVQAGGSLRLSCAASGRIFGYYARGWYRQAPGKEREFVAGITQRTDSTYYADSVKGRFTISRDNAKNTVYLQMNSLKPEDTAVYFCAARGYGGYHWGYYWGQGTQVTVSS,high polyreactivity
3,QVQLVESGGGLVQAGGSLRLSCAASGRIFGYYTMGWYRQAPGKEREFVAAISYRGGSTYYADSVKGRFTISRDNAKNTVYLQKNSLKPEDTAVYYCNARKSYYTVRSYDSWGQGTQVTVSS,high polyreactivity
4,QVQLVESGGGLVQAGGSLRLSCAASGRIFGYYTMGWYRQAPGKERELVATITGGGGSTYYADSVKGRFTISRDNAKNTVYLQMNSLKPEDTAVYYCAKRNWKYVSHRHSYYETYDYWGQGTQVTVSS,high polyreactivity
5,QVQLVESGGGLVQAGGSLRLSCAASGRIFGYYVMGWYRQAPGKERELVAAINYDGGSTYYADSVKGRFTISRDNAKNTVYLQMNSLKPEDTAVYYCAAAIGNSEYGWRYDYWGQGTQVTVSS,low polyreactivity
6,QVQLVESGGGLVQAGGSLRLSCAASGRIFGYYVMGWYRQAPGQERELVARIRSGGNTYYADSVKGRFTISRDNAKNTVYLQMNSLKPEDTAVYYCNADPRTGWYKYDYWGQGTQVTVSS,high polyreactivity
7,QVQLVESGGGLVQAGGSLRLSCAASGRIFHGYAMGWYRQAPGKERELVAVIRSGVNTNYADSVKGRFTISRDNAKNTVYLQMNSLKPEDTAVYYCAVDYTPEDWGDDYWGQGTQVTVSS,low polyreactivity
8,QVQLVESGGGLVQAGGSLRLSCAASGRIFHKYTMGRYRQAPGKERELVAAISFSTGNTFYADSVKGRFTISRDTANNTVFLQMNSLKPEDTAVYYCATDVLYPDYDYWGQGTQVTVSS,low polyreactivity
9,QVQLVESGGGLVQAGGSLRLSCAASGRIFHRYAMGWDRQAPGKERELVAAINWRTGNTYYADSVKGRFTISRDNAKNTVYLQMNSLTPEDTAVYYCNARYRSDYWGIQYDYWGQGTQVTVSS,high polyreactivity
10,QVQLVESGGGLVQAGGSLRLSCAASGRIFHRYAMGWYRQAPGKERELVAAITRGGSTNYADSVKGRFTISRDNAKNTVYLQMNSLKPEDTAVYYCNADVYAWYLSHRYDYWGQGTQVTVSS,low polyreactivity
11,QVQLVESGGGLVQAGGSLRLSCAASGRIFHSYAMGWYRQAPGKERELVAAISSGGNTYYADSVKGRFTISRDNAKNTVYLQMNSLKPEDTAVYDCARDWDFLYDGFHSDSYEYWGQGTQVTVSS,low polyreactivity
12,QVQLVESGGGLVQAGGSLRLSCAASGRIFHSYAMGWYRQAPGKERELVASITWDSTSTNYADSVKGRFTISRDNAKNTVYLQMNSLKPEDTAVYYCNADESRYGFGYDYWGQGTQVTVSS,low polyreactivity
13,QVQLVESGGGLVQAGGSLRLSCAASGRIFHVNAMGWYRQAPGKEMDLVAAISTSGGRTYYADSVKGRFTISRDNAKNTVYLQMNSLKPEDTAVYYCAAVSRAPGLRYDYWGQGTQVTVSS,high polyreactivity
14,QVQLVESGGGLVQAGGSLRLSCAASGRIFHWYAMGWYRQAPGKERELVAAIRWTGGSTYYADSVKGRFTISRDNAKNTVYLQMNSLKREDTAVYYCAAKGYTGIFYEMDYWGQGTQVTVSS,low polyreactivity
15,QVQLVESGGGLVQAGGSLRLSCAASGRIFHYNTMGWYRQAPGKERELVAAITSSGGSTYYADSVKGRFTISRDNAKNTVYLQMNSLKPEDTAVYYCNAVFYRYGYKVDYWGQGTQVTVSS,high polyreactivity
16,QVQLVESGGGLVQAGGSLRLSCAASGRIFHYYAMGWYIKAPGKERELVAAITSSGGSTYYADSVKGRFTISRDNAKNTVYLKMNSLKPEDTAVYYCAARGRRVSAYYYWGQGTQVTVSS,high polyreactivity

row,Sequence,polyreactivity (PSR sort gate)
1,QVQLVESGGGLVQAGGSLRLSCAASGRIFHYYAMGWYRQAPGKERELVAAISYSGTRTYYADSVKGRFTISRDNAKNTVYLQMNSLNPEDTAVYYCNAARSTNFDYWGQGTQVTVSS,high polyreactivity
2,QVQLVESGGGLVQAGGSLRLSCAASGRIFHYYAMGWYRQAPGKERELVADSSWSGGRTYYADSVKGRFTISRDNAKNTVYLQMNSLKPEDTAVYYCAAGHSYRPYYYYGEYDYWGQGTQVTVSS,high polyreactivity
3,QVQLVESGGGLVQAGGSLRLSCAASGRIFIDYAMGWYRQAPGKERELVATITSSGGSTYYADSVKGRFTISRDNAKNTVYLQMNSLKPEDTAVYYCNKEGSYDYDFWGQGTQVTVSS,low polyreactivity
4,QVQLVESGGGLVQAGGSLRLSCAASGRIFIGNAMGWYRQAPGKERELVAAISRRGGTTYYADSVKGRFTISRDNAKNTVYLQMNSLKPEDTAVYYCNKEWTYEHGYWGQGTQVTVSS,high polyreactivity
5,QVQLVESGGGLVQAGGSLRLSCAASGRIFIGNAMGWYRQAPGKERELVAAITQSGGSTYYADSVKGRFTISRDNAKNTVYLQMNSLKPEDTAVYYCSKALRRPRSGGNPGQAYGYWGQGTQVTVSS,low polyreactivity
6,QVQLVESGGGLVQAGGSLRLSCAASGRIFIGYAMGWYRQAPGKERELVAAISRSGGSTYYADSVKGRFTISRDNAKYTVYLQMNSLKPEDTAVYYCAASPPFGYYYWGQGTQVTVSS,high polyreactivity
7,QVQLVESGGGLVQAGGSLRLSCAASGRIFIGYAMGWYRQAPGKERELVAAITSGGGTYYADSVKGRFTISRDNAKNTVYLQMNSLKPEDTAVYYCAAAQRYPIKYYYWGQGTQVTVSS,low polyreactivity
8,QVQLVESGGGLVQAGGSLRLSCAASGRIFIIYAMGWYRQAPGTEREFVAAITSSGGSTYYADSVKGRFTISRDNAKNTVYLQMNSLKPEDTAVYYSAADSTEYTGDASYIGYDYWGQGTQVTVSS,high polyreactivity
9,QVQLVESGGGLVQAGGSLRLSCAASGRIFIKNAMGWNRQAPGKERELVAAISDSGDSTYYADSVKGRFTISRDNAKNSVYLQMNSLKPEDTAVYYCAADGADHRSEMYYWGQGTQVTVSS,low polyreactivity
10,QVQLVESGGGLVQAGGSLRLSCAASGRIFILNTMGWYRQAPGKERELVAGISYSGSTYYADSVKGRFTISRDNAKNTVYLQMNSMKPEDTAVYYCAADYDAAWYNDGYYYWGQGTQVTVSS,low polyreactivity
11,QVQLVESGGGLVQAGGSLRLSCAASGRIFIPYAMAWYRQAPGNERELVAAISSSGGSTYYADSVKGRFTISRDNAKNTVYLQMNSLKPEDTAVYYCSALLYWWYAYETYSSLFEYDYWGQGTLVTVSS,low polyreactivity
12,QVQLVESGGGLVQAGGSLRLSCAASGRIFIRNAMGWYRQAPGKEREFVAAISYGGSTYYADSVKGRFTISRDNAKNTVYLQMNSLKPEDTAVYYCAARVLPYLTPRRQMYYWGQGTQVTVSS,low polyreactivity
13,QVQLVESGGGLVQAGGSLRLSCAASGRIFIRNAMGWYRQAPGKERELVAAITSDGGSTDYADSVKGRFTISRDNAKNTVYLQMNSLIPEDTAVYYCAATGSGYDYWGQGTQVTVSS,low polyreactivity
14,QVQLVESGGGLVQAGGSLRLSCAASGRIFIRYAMGSYRQAPGKERELVAAITYSGGRTYYADSVKGRFTISRDNAKNTVYLQMNSLKPEDTAVYYCAADAPYGEDYWGQGTQVTVSS,high polyreactivity
15,QVQLVESGGGLVQAGGSLRLSCAASGRIFITNTMGWSRPAPGKERELVAAISRTGGSTYYADSVKGRFTISRDNAKNTVYLQMNSLKPEDTAVYYCAKRYYGSPQLRYYYWGQGTQVTVSS,high polyreactivity
16,QVQLVESGGGLVQAGGSLRLSCAASGRIFIVNAMGWYRQAPGKERELVAAIRTGGSNTYYADSVKGRFTISRDNAKNTVSLQMTSLKPEDTAVYYCNARSTRRINYWGQGTQVTVSS,high polyreactivity
